Assay results published in patent US20030073629A1 (published 2003).

B1: endogenous mature Omi from HEK293 cell extracts (38 kDa band) (enzyme)
chain: AVPSPPPASPRSQYNFIADVVEKTAPAVVYIEILDRHPFLGREVPISNGSGFVVAADGLIVTNAHVVADRRRVRVRLLSGDTYEAVVTAVDPVADIATLRIQTKEPLPTLPLGRSADVRQGEFVVAMGSPFALQNTITSGIVSSAQRPARDLGLPQTNVEYIQTDAAIDFGNSGGPLVNLDGEVIGVNTMKVTAGISFAIPSDRLREFLHRGEKKNSSSGISGSQRRYIGVMMLTLSPSILAELQLREPSFPDVQHGVLIHKVILGSPAHRAGLRPGDVILAIGEQMVQNAEDVYEAVRTQSQLAVQIRRGRETLTLYVTPEVTE
notes: also called HtrA2

Tests used:
XIAP [1] = molecular target: T1, XIAP (human, UniProt P98170 1-497); experiment: far-western blot with ^35S-labeled in vitro translated XIAP
T1 construct: also called ^35S-labeled in vitro translated XIAP; ^35S-XIAP
T1 sequence (P98170 whole entry): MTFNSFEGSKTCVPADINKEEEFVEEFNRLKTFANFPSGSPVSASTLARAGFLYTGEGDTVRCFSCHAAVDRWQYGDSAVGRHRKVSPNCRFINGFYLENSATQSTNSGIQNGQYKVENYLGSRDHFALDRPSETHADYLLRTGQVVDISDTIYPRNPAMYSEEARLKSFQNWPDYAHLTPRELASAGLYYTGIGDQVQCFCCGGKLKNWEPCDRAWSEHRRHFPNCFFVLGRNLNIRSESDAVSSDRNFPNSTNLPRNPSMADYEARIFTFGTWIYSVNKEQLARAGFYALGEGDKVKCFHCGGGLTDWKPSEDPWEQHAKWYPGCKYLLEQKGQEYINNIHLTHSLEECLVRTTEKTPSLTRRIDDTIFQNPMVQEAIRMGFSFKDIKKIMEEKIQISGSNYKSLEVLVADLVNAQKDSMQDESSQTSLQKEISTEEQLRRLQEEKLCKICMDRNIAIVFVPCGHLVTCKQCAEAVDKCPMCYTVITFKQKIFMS
Source text: As mentioned above, the mechanism of IAP inhibition of caspases is conserved in mammals and insects. Accordingly, it is thought that other mammalian IAP-binding proteins are still undiscovered. To identify such proteins, a GST-BIR3 fusion protein was used as an affinity reagent to purify new IAP binding proteins from extracts of human HEK293 cells and mouse heart, kidney, liver and spleen tissues. […] Cells were homogenized and centrifuged once at 20,000×g and the supernatant was then subjected to centrifugation at 100,000×g. The resultant supernatant was pre-cleared with Glutathion-Sepharose beads and then incubated with GST-BIR3 bound to Glutathion-Sepharose beads for 12 hours at 4° C. The mixture was centrifuged at 500 rpm for three minutes and the GST-BIR3 bead pellet was washed three times in the lysis buffer. After binding the extracts to the GST-BIR3 protein, the bound proteins were eluted with 200 μM of the Smac IAP-binding motif peptide AVPIA (SEQ ID NO:2) at 37° C. for one hour and analyzed by far-western blotting with ³⁵S-labeled in vitro translated XIAP. Specifically, the affinity-purified proteins were subjected to SDS-PAGE electrophoresis and then transferred to a nitrocellulose membrane using standard western blotting technique. […]

[2] = molecular target: B1; experiment: immunodepletion of 293 extracts with Smac monoclonal antibody, then GST-BIR3 pull-down
Method: The undepleted and depleted extracts were incubated with the GST-BIR3 protein and the bound proteins were eluted as above. The eluates were then analyzed by far-western blotting with ³⁵S-XIAP and by western blotting with the Smac antibody as described above (see FIG. 4, left and right panels, respectively). […] The asterisk in FIG. 4 indicates non-specific bands and the arrow indicates the IgG band.

[3] = molecular target: T2, Omi-deltaAVPS (C-terminal His6-tagged recombinant mature Omi with the AVPS motif deleted) (human, UniProt O43464 138-458); experiment: GST pull-down with purified recombinant proteins, Coomassie gel
T2 construct: also called Omi-ΔAVPS
T2 sequence: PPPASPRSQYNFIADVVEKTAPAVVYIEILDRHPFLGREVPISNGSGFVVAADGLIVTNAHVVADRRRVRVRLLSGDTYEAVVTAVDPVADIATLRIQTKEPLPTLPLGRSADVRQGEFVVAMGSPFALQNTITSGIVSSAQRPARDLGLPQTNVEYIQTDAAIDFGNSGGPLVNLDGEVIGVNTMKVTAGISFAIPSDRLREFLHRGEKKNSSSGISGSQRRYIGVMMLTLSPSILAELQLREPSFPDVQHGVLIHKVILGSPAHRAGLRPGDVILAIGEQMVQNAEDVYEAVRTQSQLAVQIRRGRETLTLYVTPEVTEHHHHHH
Source text: To determine whether a recombinant Omi lacking the first 133 residues (mature Omi) can interact with the GST-BIR3 fusion protein, this protein was expressed with a C-terminal His6 tag in bacteria and purified to apparent homogeneity (see FIG. 7B). […] FIGS. 7A and 7B show scanned images of Coomassie stained gels representing SDS-PAGE analysis of purified C-terminal His6-tagged recombinant wild type mature Omi (WT), Omi-ΔAVPS, Omi-S306A, and mature Smac (FIG. 7A) and recombinant Omi and Smac proteins with GST-BIR1, 2, GST-BIR3 or GST-BIR3-E314S fusion proteins (FIG. 7B). Both recombinant mature Omi and Smac were able to interact equally with the wild type GST-BIR3 protein but not with the GST-BIR3-E314S mutant ([…]). Mature Omi and Smac were also able to interact with the GST-BIR1, 2 fusion protein. […] However, deletion of the AVPS motif of mature Omi completely abolished its interaction with the GST-BIR3 fusion protein.

[4] = molecular target: T3, M-Omi-S/A-GFP (inactive S306A Omi-GFP fusion protein without the MTS, initiator methionine retained) (human, UniProt O43464 134-458); experiment: GST-BIR3 precipitation of transfected cell extracts, immunoblot
T3 construct: not shown: C-terminal GFP tag
T3 sequence: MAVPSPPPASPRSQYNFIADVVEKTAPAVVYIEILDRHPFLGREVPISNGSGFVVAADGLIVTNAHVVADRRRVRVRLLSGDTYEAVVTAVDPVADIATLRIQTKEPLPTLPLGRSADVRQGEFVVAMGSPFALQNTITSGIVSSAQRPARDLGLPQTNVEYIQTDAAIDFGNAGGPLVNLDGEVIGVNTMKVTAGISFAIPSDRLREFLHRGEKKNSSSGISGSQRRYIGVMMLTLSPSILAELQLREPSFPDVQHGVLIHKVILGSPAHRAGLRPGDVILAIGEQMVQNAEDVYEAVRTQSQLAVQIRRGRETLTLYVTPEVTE

[5] = molecular target: T4, M-Omi-GFP (active Omi-GFP fusion protein without the MTS, initiator methionine retained) (human, UniProt O43464 134-458); experiment: as above
T4 construct: also called Omi134-458-GFP; not shown: C-terminal GFP tag
T4 sequence: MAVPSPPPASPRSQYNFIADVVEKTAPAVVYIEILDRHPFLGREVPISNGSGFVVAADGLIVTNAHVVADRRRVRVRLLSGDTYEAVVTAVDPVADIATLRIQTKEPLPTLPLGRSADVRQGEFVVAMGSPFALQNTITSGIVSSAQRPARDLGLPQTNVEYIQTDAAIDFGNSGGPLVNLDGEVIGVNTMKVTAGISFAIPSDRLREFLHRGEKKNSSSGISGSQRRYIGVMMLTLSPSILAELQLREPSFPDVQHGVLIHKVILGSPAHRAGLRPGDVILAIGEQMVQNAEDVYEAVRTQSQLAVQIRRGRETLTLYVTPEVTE

[6] = molecular target: T5, Omi-S/A with the AVPS motif mutated to SSAS, from GFP-IETD-SSA (human, UniProt O43464 137-458); experiment: GST-BIR3 precipitation of transfected 293T cell extracts, Flag immunoblot
T5 construct: expressed as GFP-IETD fusion
T5 sequence: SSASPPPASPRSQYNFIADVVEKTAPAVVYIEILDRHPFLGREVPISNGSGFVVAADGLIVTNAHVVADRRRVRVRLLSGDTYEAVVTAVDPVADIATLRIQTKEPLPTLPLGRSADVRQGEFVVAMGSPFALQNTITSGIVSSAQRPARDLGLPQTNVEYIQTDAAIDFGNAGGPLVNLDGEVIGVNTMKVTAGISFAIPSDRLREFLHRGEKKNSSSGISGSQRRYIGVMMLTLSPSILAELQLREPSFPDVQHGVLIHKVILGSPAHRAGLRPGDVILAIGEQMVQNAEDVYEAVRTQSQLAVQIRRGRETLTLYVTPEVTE

XIAP [7] = molecular target: T1, XIAP; experiment: co-immunoprecipitation with Flag antibody from 293T cells, XIAP immunoblot

B1: binds (XIAP [1]).

B2: endogenous mature Smac/Diablo from HEK293 cell extracts (23 kDa band) (other, human, UniProt Q9NR28 56-239, looked up)
chain: AVPIAQKSEPHSLSSEALMRRAVSLVTDSTSTFLSQTTYALIEAITEYTKAVYTLTSLYRQYTSLLGKMNSEEEDEVWQVIIGARAEMTSKHQEYLKLETTWMTAVGLSEMAAEAAYQTGADQASITARNHIQLVKLQVEEVHQLSRKAETKLAEAQIEELRQKTQEEGEERAESEQEAYLRED
notes: mature
B2: no binding [2].

B3: GST-BIR3 fusion protein (BIR3 domain of human XIAP fused to GST) (other, UniProt P98170 238-358, looked up)
chain: RSESDAVSSDRNFPNSTNLPRNPSMADYEARIFTFGTWIYSVNKEQLARAGFYALGEGDKVKCFHCGGGLTDWKPSEDPWEQHAKWYPGCKYLLEQKGQEYINNIHLTHSLEECLVRTTEK
notes: domain: BIR3; also called wild type GST-BIR3; XIAP-BIR3; not shown: glutathione-S-transferase (GST) fusion partner
B3: no binding [3]; no binding [4]; no binding [5]. B3: no binding [6].

B4: mature Omi with the AVPS motif mutated to AAAS, processed in 293T cells from a C-terminal Flag-tagged mutant precursor (enzyme)
chain: AAASPPPASPRSQYNFIADVVEKTAPAVVYIEILDRHPFLGREVPISNGSGFVVAADGLIVTNAHVVADRRRVRVRLLSGDTYEAVVTAVDPVADIATLRIQTKEPLPTLPLGRSADVRQGEFVVAMGSPFALQNTITSGIVSSAQRPARDLGLPQTNVEYIQTDAAIDFGNSGGPLVNLDGEVIGVNTMKVTAGISFAIPSDRLREFLHRGEKKNSSSGISGSQRRYIGVMMLTLSPSILAELQLREPSFPDVQHGVLIHKVILGSPAHRAGLRPGDVILAIGEQMVQNAEDVYEAVRTQSQLAVQIRRGRETLTLYVTPEVTE
notes: also called AAAS mutant; not shown: C-terminal Flag tag
B4: no binding (XIAP [7]).
